Source: US20200199213A1 (Eli Lilly, published 2020)
Where two headings read alike, the source gives them in different places.

T1: human ANGPTL3/8 complex (human, UniProt Q9Y5C1 17-460; Q6UXH0 22-198, limits assumed)
T1 construct: also called hANGPTL3/8 complex; ANGTPL3/8 complex
T1 sequence 1: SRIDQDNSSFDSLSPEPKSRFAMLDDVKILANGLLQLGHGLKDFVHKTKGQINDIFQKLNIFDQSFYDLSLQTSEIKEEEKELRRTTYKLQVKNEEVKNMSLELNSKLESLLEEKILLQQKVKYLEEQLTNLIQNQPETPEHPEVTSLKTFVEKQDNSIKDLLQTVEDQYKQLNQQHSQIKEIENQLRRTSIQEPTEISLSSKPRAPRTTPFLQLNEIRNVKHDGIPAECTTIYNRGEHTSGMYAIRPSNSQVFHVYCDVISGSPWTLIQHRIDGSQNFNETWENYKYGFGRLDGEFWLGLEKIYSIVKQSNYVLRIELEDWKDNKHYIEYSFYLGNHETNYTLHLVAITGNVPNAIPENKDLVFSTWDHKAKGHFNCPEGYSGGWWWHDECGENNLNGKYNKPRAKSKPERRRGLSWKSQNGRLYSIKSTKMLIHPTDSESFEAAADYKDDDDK
T1 sequence 2: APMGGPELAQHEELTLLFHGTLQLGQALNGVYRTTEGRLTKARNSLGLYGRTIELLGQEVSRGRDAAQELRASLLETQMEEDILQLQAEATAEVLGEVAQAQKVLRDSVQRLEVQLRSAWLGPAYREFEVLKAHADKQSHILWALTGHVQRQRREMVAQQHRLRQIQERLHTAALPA

T2: cynomolgus ANGPTL3/8 complex (cynomolgus, UniProt A0A2K5UDC5 17-460; A0A2K5WWS3 22-198)
T2 construct: also called cyno ANGPTL3/8
T2 sequence 1: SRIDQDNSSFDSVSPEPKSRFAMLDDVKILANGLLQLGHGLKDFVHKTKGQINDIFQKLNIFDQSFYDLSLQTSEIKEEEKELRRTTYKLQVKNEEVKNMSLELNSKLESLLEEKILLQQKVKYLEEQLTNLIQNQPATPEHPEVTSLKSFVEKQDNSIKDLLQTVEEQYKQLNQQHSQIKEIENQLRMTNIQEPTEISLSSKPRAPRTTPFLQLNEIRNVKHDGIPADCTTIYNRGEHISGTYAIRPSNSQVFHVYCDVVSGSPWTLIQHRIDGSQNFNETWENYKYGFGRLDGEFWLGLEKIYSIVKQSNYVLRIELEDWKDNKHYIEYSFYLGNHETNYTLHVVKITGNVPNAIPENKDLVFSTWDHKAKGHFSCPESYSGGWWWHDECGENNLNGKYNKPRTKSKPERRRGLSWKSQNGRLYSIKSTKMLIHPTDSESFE
T2 sequence 2: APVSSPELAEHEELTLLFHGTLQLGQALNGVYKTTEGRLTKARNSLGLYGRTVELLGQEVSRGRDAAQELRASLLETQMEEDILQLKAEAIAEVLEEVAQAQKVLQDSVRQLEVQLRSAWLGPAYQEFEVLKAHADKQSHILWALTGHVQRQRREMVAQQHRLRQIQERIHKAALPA

T3: mouse ANGPTL3/8 complex (mouse, UniProt Q9R182 17-455; Q8R1L8 16-198, limits assumed)
T3 sequence (looked up) 1: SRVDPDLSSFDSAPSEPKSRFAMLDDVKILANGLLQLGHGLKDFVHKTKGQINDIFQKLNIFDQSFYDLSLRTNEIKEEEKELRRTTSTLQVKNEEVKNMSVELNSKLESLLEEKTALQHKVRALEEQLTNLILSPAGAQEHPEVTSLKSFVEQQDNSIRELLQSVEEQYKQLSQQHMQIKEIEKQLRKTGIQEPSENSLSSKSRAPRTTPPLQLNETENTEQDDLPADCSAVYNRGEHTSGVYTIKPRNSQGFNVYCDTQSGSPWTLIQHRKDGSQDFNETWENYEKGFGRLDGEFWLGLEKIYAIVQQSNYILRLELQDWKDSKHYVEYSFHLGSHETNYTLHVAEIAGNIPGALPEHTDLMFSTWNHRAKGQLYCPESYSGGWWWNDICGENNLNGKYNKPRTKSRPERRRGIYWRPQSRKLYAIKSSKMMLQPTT
T3 sequence (looked up) 2: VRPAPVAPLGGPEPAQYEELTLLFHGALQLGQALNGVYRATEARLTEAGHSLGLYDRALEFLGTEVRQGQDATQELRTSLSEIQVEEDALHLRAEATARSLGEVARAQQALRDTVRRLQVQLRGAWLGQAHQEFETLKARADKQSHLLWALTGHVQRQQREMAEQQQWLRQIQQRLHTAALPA


Tests used:
Assay in all cases: SPR, Biacore T200; Ab captured on Human Fab Binder, complex injected; pH 7.4, 25 C
[1] = molecular target: T1, human ANGPTL3/8 complex
[2] = molecular target: T2, cynomolgus ANGPTL3/8 complex
[3] = molecular target: T3, mouse ANGPTL3/8 complex
[4] = molecular target: T1, human ANGPTL3/8 complex; remark: listed apart in the source
[5] = molecular target: T2, cynomolgus ANGPTL3/8 complex; remark: listed apart in the source
[6] = molecular target: T3, mouse ANGPTL3/8 complex; remark: listed apart in the source

Row | Kd [1] | koff [1] | kon [1] | Kd [2] | koff [2] | kon [2] | Kd [3] | koff [3] | kon [3] | Kd [4] | koff [4] | kon [4] | Kd [5] | koff [5] | kon [5] | Kd [6] | koff [6] | kon [6] | Binder
1 | 0.201 nM | 9.19e-05 s⁻¹ | 457000 M⁻¹ s⁻¹ | 0.609 nM | 0.000265 s⁻¹ | 435000 M⁻¹ s⁻¹ | 0.68 nM | 0.000347 s⁻¹ | 515000 M⁻¹ s⁻¹ | – | – | – | – | – | – | – | – | – | Ab with LC variant having a D33A mutation (SEQ ID NO:22) and a HC of SEQ ID NO:6 (antibody, human IgG4 S228P, kappa, F234A L235A, V domains shown, also called D33A Variant Ab; D33A Ab) VH: QVTLKESGPTLVKPTQTLTLTCTFSGFSLSISGVGVGWIRQPPGKALEWLALIYRNDDKRYSPSLKSRLTITKDTSKNQVVLTLTNMDPVDTATYYCARTYSSGWYGNWFDPWGQGTLVTVSS VL: DIVMTQTPLSLPVTPGEPASISCRSSQSLLDSADGNTYLDWYLQKPGQSPQLLIYMLSYRASGVPDRFSGSGSGTDFTLKISRVEAEDVGIYYCMQRIEFPLTFGGGTKVEIKR
2 | – | – | – | – | – | – | – | – | – | 0.0484 nM | 3.26e-05 s⁻¹ | 674000 M⁻¹ s⁻¹ | 0.116 nM | 7.23e-05 s⁻¹ | 620000 M⁻¹ s⁻¹ | 0.254 nM | 0.000151 s⁻¹ | 596000 M⁻¹ s⁻¹ | Ab with LC variant having a E99Q mutation (SEQ ID NO:25) and a HC of SEQ ID NO:6 (antibody, human IgG4 S228P, kappa, F234A L235A, V domains shown, also called E99Q Variant Ab; E99Q Ab) VH: QVTLKESGPTLVKPTQTLTLTCTFSGFSLSISGVGVGWIRQPPGKALEWLALIYRNDDKRYSPSLKSRLTITKDTSKNQVVLTLTNMDPVDTATYYCARTYSSGWYGNWFDPWGQGTLVTVSS VL: DIVMTQTPLSLPVTPGEPASISCRSSQSLLDSDDGNTYLDWYLQKPGQSPQLLIYMLSYRASGVPDRFSGSGSGTDFTLKISRVEAEDVGIYYCMQRIQFPLTFGGGTKVEIKR
